According to US20220040297A1 (Chugai, published 2022):
Where a chain is given by its changes, count along the chain named. Names and notes keep the numbering of the source.

B1: CE115HA000 Q50L (antibody, name in Kabat numbering, V domains shown)
VH: QVQLVESGGGVVQPGRSLRLSCAASGFTFSNAWMHWVRQAPGKGLEWVALIKAKSNNYATYYAESVKGRFTISRDDSKNSLYLQMNSLKTEDTAVYYCRYVHYGAYYGVDAWGQGTTVTVSS
VL: DIVMTQSPLSLPVTPGEPASISCRSSQSLVHSNRNTYLHWYQQKPGQAPRLLIYKVSNRFSGVPDRFSGSGSGTDFTLKISRVEAEDVGVYYCGQGTQVPYTFGQGTKLEIK
B2: CE115HA000 T57A (antibody, name in Kabat numbering, V domains shown)
VH: B1 VH with L50Q, T60A
VL: B1 VL
B3: CE115HA000 T57I (antibody, name in Kabat numbering, V domains shown)
VH: B1 VH with L50Q, T60I
VL: B1 VL
B4: CE115HA000 Y58D (antibody, name in Kabat numbering, V domains shown)
VH: B1 VH with L50Q, Y61D
VL: B1 VL
B5: CE115HA000 R16Q (antibody, name in Kabat numbering, V domains shown)
VH: B1 VH with R16Q, L50Q
VL: B1 VL
B6: CE115HA000 W33D (antibody, name in Kabat numbering, V domains shown)
VH: B1 VH with W33D, L50Q
VL: B1 VL
B7: CE115HA000 R19T (antibody, name in Kabat numbering, V domains shown)
VH: B1 VH with R19T, L50Q
VL: B1 VL
B8: CE115HA000 V95S (antibody, name in Kabat numbering, V domains shown)
VH: B1 VH with L50Q, V101S
VL: B1 VL
B9: CE115HA000 T57N (antibody, name in Kabat numbering, V domains shown)
VH: B1 VH with L50Q, T60N
VL: B1 VL
B10: CE115HA000 S52cD (antibody, name in Kabat numbering, V domains shown)
VH: B1 VH with L50Q, S55D
VL: B1 VL
B11: CE115HA000 W33F (antibody, name in Kabat numbering, V domains shown)
VH: B1 VH with W33F, L50Q
VL: B1 VL
B12: CE115HA000 V95D (antibody, name in Kabat numbering, V domains shown)
VH: B1 VH with L50Q, V101D
VL: B1 VL
B13: CE115HA000 S62P (antibody, name in Kabat numbering, V domains shown)
VH: B1 VH with L50Q, S65P
VL: B1 VL
B14: CE115HA000 T28D (antibody, name in Kabat numbering, V domains shown)
VH: B1 VH with T28D, L50Q
VL: B1 VL
B15: CE115HA000 S62E (antibody, name in Kabat numbering, V domains shown)
VH: B1 VH with L50Q, S65E
VL: B1 VL
B16: CE115HA000 Q50Y (antibody, name in Kabat numbering, V domains shown)
VH: B1 VH with L50Y
VL: B1 VL
B17: CE115HA000 S52cF (antibody, name in Kabat numbering, V domains shown)
VH: B1 VH with L50Q, S55F
VL: B1 VL
B18: CE115HA000 W33L (antibody, name in Kabat numbering, V domains shown)
VH: B1 VH with W33L, L50Q
VL: B1 VL
B19: CE115HA000 V100cA (antibody, name in Kabat numbering, V domains shown)
VH: B1 VH with L50Q, V109A
VL: B1 VL
B20: CE115HA000 S74P (antibody, name in Kabat numbering, V domains shown)
VH: B1 VH with L50Q, S77P
VL: B1 VL
B21: CE115HA000 Q50S (antibody, name in Kabat numbering, V domains shown)
VH: B1 VH with L50S
VL: B1 VL
B22: CE115HA000 W33A (antibody, name in Kabat numbering, V domains shown)
VH: B1 VH with W33A, L50Q
VL: B1 VL
B23: CE115HA000 Y55G (antibody, name in Kabat numbering, V domains shown)
VH: B1 VH with L50Q, Y58G
VL: B1 VL
B24: CE115HA000 W33Y (antibody, name in Kabat numbering, V domains shown)
VH: B1 VH with W33Y, L50Q
VL: B1 VL
B25: CE115HA000 S52cK (antibody, name in Kabat numbering, V domains shown)
VH: B1 VH with L50Q, S55K
VL: B1 VL
B26: CE115HA000 V100cP (antibody, name in Kabat numbering, V domains shown)
VH: B1 VH with L50Q, V109P
VL: B1 VL
B27: CE115HA000 S52cV (antibody, name in Kabat numbering, V domains shown)
VH: B1 VH with L50Q, S55V
VL: B1 VL
B28: CE115HA000 S52cL (antibody, name in Kabat numbering, V domains shown)
VH: B1 VH with L50Q, S55L
VL: B1 VL
B29: CE115HA000 Q105E (antibody, name in Kabat numbering, V domains shown)
VH: B1 VH with L50Q, Q114E
VL: B1 VL
B30: CE115HA000 S62K (antibody, name in Kabat numbering, V domains shown)
VH: B1 VH with L50Q, S65K
VL: B1 VL
B31: CE115HA000 W33H (antibody, name in Kabat numbering, V domains shown)
VH: B1 VH with W33H, L50Q
VL: B1 VL
B32: CE115HA000 S62D (antibody, name in Kabat numbering, V domains shown)
VH: B1 VH with L50Q, S65D
VL: B1 VL
B33: CE115HA000 Y55D (antibody, name in Kabat numbering, V domains shown)
VH: B1 VH with L50Q, Y58D
VL: B1 VL
B34: CE115HA000 V11L (antibody, name in Kabat numbering, V domains shown)
VH: B1 VH with V11L, L50Q
VL: B1 VL
B35: CE115HA000 S52cQ (antibody, name in Kabat numbering, V domains shown)
VH: B1 VH with L50Q, S55Q
VL: B1 VL
B36: CE115HA000 S30D (antibody, name in Kabat numbering, V domains shown)
VH: B1 VH with S30D, L50Q
VL: B1 VL
B37: CE115HA000 S77T (antibody, name in Kabat numbering, V domains shown)
VH: B1 VH with L50Q, S80T
VL: B1 VL
B38: CE115HA000 T28S (antibody, name in Kabat numbering, V domains shown)
VH: B1 VH with T28S, L50Q
VL: B1 VL
B39: CE115HA000 Y55S (antibody, name in Kabat numbering, V domains shown)
VH: B1 VH with L50Q, Y58S
VL: B1 VL
B40: CE115HA000 R16E (antibody, name in Kabat numbering, V domains shown)
VH: B1 VH with R16E, L50Q
VL: B1 VL
B41: CE115HA000 T57K (antibody, name in Kabat numbering, V domains shown)
VH: B1 VH with L50Q, T60K
VL: B1 VL
B42: CE115HA000 Y58A (antibody, name in Kabat numbering, V domains shown)
VH: B1 VH with L50Q, Y61A
VL: B1 VL
B43: CE115HA000 S30G (antibody, name in Kabat numbering, V domains shown)
VH: B1 VH with S30G, L50Q
VL: B1 VL
B44: CE115HA000 S52cG (antibody, name in Kabat numbering, V domains shown)
VH: B1 VH with L50Q, S55G
VL: B1 VL
B45: CE115HA000 S52cA (antibody, name in Kabat numbering, V domains shown)
VH: B1 VH with L50Q, S55A
VL: B1 VL

What follows are binders tested against T1, CD3ε homodimer protein (human, UniProt P07766 23-126, limits assumed, sulfo-tag or biotin label in some ECL assays) (assay: SPR, CD3ε homodimer on chip;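 further: biacore SPR with antibody variants flowed as analyte over amine-coupled CD3ε homodimer on a CM chip, bound amount of each single-residue H chain variant over that of parent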).
T1 construct: also called human CD3ε homodimer protein; CD3 (CD3ε)
T1 sequence (P07766 23-126 limits assumed): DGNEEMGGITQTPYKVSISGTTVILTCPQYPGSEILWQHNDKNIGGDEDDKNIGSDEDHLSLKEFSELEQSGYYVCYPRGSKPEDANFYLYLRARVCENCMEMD
Description: An appropriate amount of CD3ε homodimer protein was immobilized onto Sensor chip CM4 (GE Healthcare Japan Corp.) by the amine coupling method. Then, the antibody having an appropriate concentration was injected thereto as an analyte and allowed to interact with the CD3ε homodimer protein on the sensor chip. Then, the sensor chip was regenerated by the injection of 10 mmol/L glycine-HCl (pH 1.5). The assay was conducted at 25° C., and HBS-EP+ (GE Healthcare Japan Corp.) was used as a running buffer. […] Each parameter was calculated using Biacore T200 Evaluation Software (GE Healthcare Japan Corp.).
Specifically, when the amount of the antibody comprising CE115HA000 bound was defined as X and the amount of the H chain one-amino acid altered form bound was defined as Y, a value of Z (ratio of amounts bound)=Y/X was used.

Binder	ratio of amounts bound vs CE115HA000
B1	0.23
B2	0.98
B3	0.61
B4	0.11
B5	0.9
B6	0.1
B7	0.8
B8	0.22
B9	0.97
B10	0.6
B11	0.65
B12	0.24
B13	1
B14	0.56
B15	0.92
B16	0.25
B17	1.13
B18	0.1
B19	0.48
B20	0.91
B21	0.24
B22	0.1
B23	0.55

Binder	ratio of amounts bound vs CE115HA000
B24	0.66
B25	1.19
B26	0.8
B27	0.93
B28	0.98
B29	0.94
B30	1.19
B31	0.13
B32	0.92
B33	0.45
B34	1
B35	1.04
B36	0.86
B37	0.9
B38	0.91
B39	0.26
B40	0.88
B41	1.32
B42	0.22
B43	1.01
B44	0.97
B45	0.96
